Source: patent US6017692, “Methods of detecting a malignant cell in a biological sample comprising measuring Mxi gene expression alterations” (The General Hospital Corporation, dated 1994)
Each block holds one binder with its values, some of them ahead of it.

Legend:
[1] = molecular target: Max (151 residue form) (Homo sapiens, UniProt P61244-2 P61244-2:1-151); assay: EMSA; complex b, 10 ng Max; 10 mM Tris pH 7.4, 80 mM NaCl, room temperature; details: tags: none stated; E. coli; chain copies: 2 (inferred); label: 32P 5' end
Sequence of Max (151 residue form) (P61244 other isoform, or with tags, fused parts or gaps): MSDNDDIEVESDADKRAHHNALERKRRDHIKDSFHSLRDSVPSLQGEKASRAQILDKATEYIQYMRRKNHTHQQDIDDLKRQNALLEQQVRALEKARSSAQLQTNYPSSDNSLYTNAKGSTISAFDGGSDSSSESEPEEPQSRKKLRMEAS
Description: (§1) Gel retardation DNA binding assays were performed essentially as described in Papoulas et al., (J. Biol. Chem. 267:10470–10480, 1992). Purified Max and c-Myc bHLH-Zip (which contained residues 342–439 of human c-Myc) were made from recombinant *E. coli* by standard techniques. GST-Mxi1 was made as follows: a fragment that contained the entire coding sequence of Mxi1 was amplified using polymerase chain reaction, subcloned into pGEX-2T (Pharmacia), and transformed into DH5α cells. The fusion protein was induced and isolated as described (Smith and Corcoran, *Current Protocols in Molecular Biology*, Ausubel et al., eds., Greene Publishing and Wiley-Interscience, New York, 1989). A double-stranded oligonucleotide, 5'-[…]-3' (SEQ ID NO: 9), that contained the CACGTG (SEQ ID NO: 10) consensus site was used. Approximately 0.5 μg of oligonucleotide was end labeled with [γ-^32P] ATP. Binding assays contained the indicated concentrations of purified Max, c-Myc bHLH-Zip, GST-Mxi1, and 0.5 ng of the labeled DNA probe. […]

[2] = molecular target: LexA-Da (Escherichia coli (strain K12); Drosophila melanogaster (Fruit fly)) (UniProt P0A7C2); assay: interaction trap (yeast two-hybrid), pJK103 LexAop-lacZ reporter, galactose
Sequence of LexA-Da (Escherichia coli (strain K12); Drosophila melanogaster (Fruit fly)) (P0A7C2 1-202, tags or fused parts left off): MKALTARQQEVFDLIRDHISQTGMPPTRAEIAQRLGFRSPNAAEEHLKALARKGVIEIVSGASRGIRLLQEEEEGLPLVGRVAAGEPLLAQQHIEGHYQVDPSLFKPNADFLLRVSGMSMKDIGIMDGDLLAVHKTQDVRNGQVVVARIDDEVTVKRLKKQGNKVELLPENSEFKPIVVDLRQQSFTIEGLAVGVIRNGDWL

[3] = molecular target: LexA-Id (human); assay: as above
Sequence of LexA-Id (human) (P0A7C2 other isoform, or with tags, fused parts or gaps): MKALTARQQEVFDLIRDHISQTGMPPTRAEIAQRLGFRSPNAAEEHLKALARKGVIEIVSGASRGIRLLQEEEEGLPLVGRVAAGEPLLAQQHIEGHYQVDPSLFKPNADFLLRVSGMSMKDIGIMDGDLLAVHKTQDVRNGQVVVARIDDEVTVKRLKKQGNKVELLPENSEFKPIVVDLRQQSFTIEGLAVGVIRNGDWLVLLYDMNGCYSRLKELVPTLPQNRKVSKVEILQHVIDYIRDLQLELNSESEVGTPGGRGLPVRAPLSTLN

[4] = molecular target: LexA-Hairy (Drosophila); assay: as above
Sequence of LexA-Hairy (Drosophila) (P0A7C2 other isoform, or with tags, fused parts or gaps): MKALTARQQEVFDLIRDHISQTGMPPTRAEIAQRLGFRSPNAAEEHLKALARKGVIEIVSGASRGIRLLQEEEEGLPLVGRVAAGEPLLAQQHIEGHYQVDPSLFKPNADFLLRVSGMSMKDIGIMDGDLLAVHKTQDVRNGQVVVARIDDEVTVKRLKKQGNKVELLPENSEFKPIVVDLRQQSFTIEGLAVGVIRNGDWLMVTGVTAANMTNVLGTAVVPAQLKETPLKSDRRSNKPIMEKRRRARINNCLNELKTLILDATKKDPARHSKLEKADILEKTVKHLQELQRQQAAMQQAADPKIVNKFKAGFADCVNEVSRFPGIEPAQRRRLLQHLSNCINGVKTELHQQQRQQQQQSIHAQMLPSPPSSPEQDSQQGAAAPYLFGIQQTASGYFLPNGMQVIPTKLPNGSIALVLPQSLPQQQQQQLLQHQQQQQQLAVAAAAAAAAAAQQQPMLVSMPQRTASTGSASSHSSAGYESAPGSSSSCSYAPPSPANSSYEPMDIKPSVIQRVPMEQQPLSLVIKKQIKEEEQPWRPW

[5] = molecular target: LexA-n-Myc-bHLH-Zip (Escherichia coli (strain K12); Homo sapiens (Human)); assay: interaction trap (yeast two-hybrid), pJK103 LexAop-lacZ reporter, galactose (<2 on glucose); the text says that this bait does not interact
Sequence of LexA-n-Myc-bHLH-Zip (Escherichia coli (strain K12); Homo sapiens (Human)) (P0A7C2 1-202, tags or fused parts left off): as the sequence (P0A7C2 1-202, tags or fused parts left off) above

[6] = molecular target: LexA-cMyc-Cterm (human); assay: interaction trap (yeast two-hybrid), pJK103 LexAop-lacZ reporter, galactose (<2 on glucose)
[7] = molecular target: LexA-Max (human); assay: as above
[8] = molecular target: LexA-Mxi1 (human); assay: interaction trap (yeast two-hybrid), pJK103 LexAop-lacZ reporter, galactose; the same value 10 stands on glucose, where tagged Mxi1 is not induced, and the filing reads this as no self-interaction
[9] = molecular target: c-Myc bHLH-Zip (amino acids 342-439) (human, UniProt P01106); assay: gel retardation with an oligonucleotide holding the CACGTG site
Description: as §1

B1: Myc-Max consensus site oligonucleotide (dsDNA)
DNA 1: GGAAGCAGACCACGTGGTCTGCTTCC
DNA 2: GGAAGCAGACCACGTGGTCTGCTTCC
binding result [1]: binds

β-galactosidase (galactose) [2]: < 2
β-galactosidase (galactose) [3]: < 2
β-galactosidase (galactose) [4]: < 2
β-galactosidase (galactose) [5]: 8
β-galactosidase (galactose) [6]: 10
β-galactosidase (galactose) [7]: 120
β-galactosidase (galactose) [8]: 10
B2: tagged Mxi1 (the invariant activation-tagged moiety of pJG4-5 fused to Mxi1 residues 10-220) (protein)
chain: PPKKKRKVAYPYDVPDYAKPPRRLSRAQKHSSGTSNTSTANRSTHNELEKNRRAHLRLCLERLKVLIPLGPDCTRHTTLGLLNKAKAHIKKLEEAERKSQHQLENLEREQRFLKWRLEQLQGPQEMERIRMDSIGSTISSDRSDSEREEIEVDVESTEFSHGEVDNISTTSISDIDDHSSLPSIGSDEGYSSASVKLSFTSYRTQHDITVQGKIFTGPIQYKQSLKLGS

binding result [9]: no binding
B3: glutathione S-transferase (GST)-Mxi1 1-220 (other)
chain: MPSPRLQHSKPPRRLSRAQKHSSGTSNTSTANRSTHNELEKNRRAHLRLCLERLKVLIPLGPDCTRHTTLGLLNKAKAHIKKLEEAERKSQHQLENLEREQRFLKWRLEQLQGPQEMERIRMDSIGSTISSDRSDSEREEIEVDVESTEFSHGEVDNISTTSISDIDDHSSLPSIGSDEGYSSASVKLSFTSYRTQHDITVQGKIFTGPIQYKQSLKLGS
